{"source": "patent US20260146071A1", "about": "“CCR2 INHIBITORS AND METHODS OF USE” (ORION BIOTECHNOLOGY USA Corp., priority 2022, published 2026)", "note": "Where no end group is shown, it is not given here. [ ]: non-standard residue; d: D form. Nle = CCCC[C@H](N)C(=O)O", "data": [{"target": "T1, CCR2 (Homo sapiens, UniProt P41597)", "T1 construct": "endogenous in cells; host or cells: THP-1", "T1 sequence (P41597 1-360 isoform P41597-2)": "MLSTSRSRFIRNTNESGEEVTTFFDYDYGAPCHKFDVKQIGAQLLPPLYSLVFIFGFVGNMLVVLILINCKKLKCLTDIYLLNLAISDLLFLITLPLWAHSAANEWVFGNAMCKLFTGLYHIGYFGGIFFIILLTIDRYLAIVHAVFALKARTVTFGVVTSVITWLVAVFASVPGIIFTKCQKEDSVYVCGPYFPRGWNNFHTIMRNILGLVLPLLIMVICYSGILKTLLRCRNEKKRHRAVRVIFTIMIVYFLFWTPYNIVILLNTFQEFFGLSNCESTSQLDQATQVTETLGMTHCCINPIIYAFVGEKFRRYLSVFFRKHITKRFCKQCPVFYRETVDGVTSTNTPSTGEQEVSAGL", "experiment": "CCR2 inhibitory potency assay, calcium flux method, THP-1 cells stimulated with 100 nM CCL2", "format": "cell-based", "conditions": "FIG. 5; calcium flux, THP-1 cells; read-out: IC50 (compiled data from four experiments, mean pIC50) (converted)", "experimental": "(§1) CCR2 inhibitory potency assay was determined using the calcium flux method.\n(§2) Ca^2+ flux measurements were performed using an FDSS micro-cell device ([…]). On the day of the experiment, THP-1 cells were seeded 20000 cells/well) to wells of black-walled clear-bottom 384-well plates.\n(§3) THP-1 cells were loaded with a calcium-sensitive fluorescent dye (Screen Quest™ Fluo-8 No Wash Calcium Assay Kit, AAT Bioquest) according to the manufacturer's instructions, then a first addition of either test sample dilutions or vehicle alone were added. 5 minutes later, cells were stimulated with 100 nM CCL2.", "units": {"IC50": "nM"}, "values": [{"molecule": "CC(C)(C)N1CCN[C@@H](C(=O)N2CCN(C(=O)Nc3ccc(Cl)c(F)c3)CC2)C1", "note": "[AZD2423, reference compound]", "IC50": 6}, {"molecule": "CC(=O)N[C@@H]1C[C@H](NC(C)(C)C)CC[C@@H]1N1CC[C@H](Nc2ncnc3cc(C(C)(C)C)nn23)C1=O", "note": "[BMS-813160, reference compound]", "IC50": 9.8}, {"molecule": "Cc1cnc(C(=O)c2ncnc3[nH]ccc23)c(NS(=O)(=O)c2ccc(Cl)c(C(F)(F)F)c2)c1", "note": "[CCX-140, reference compound]", "IC50": 24}]}, {"target": "T1, CCR2", "experiment": "CCR2 inhibitory potency assay, calcium flux method, THP-1 cells stimulated with 100 nM CCL2", "format": "cell-based", "conditions": "Table 3; CCR2 inhibition; read-out: mean IC50", "experimental": "as §1, §2, §3", "units": {"IC50": "nM"}, "values": [{"molecule": "CCL2 variant, N-terminal (Nle)PDWNRAPVT (SEQ ID NO: 35), human CCL2 Met64Nle core [CCL2-M64Nle-NGS-MEO-1]", "IC50": 167}, {"molecule": "CCL2 variant, N-terminal AFSIMQAPVT (SEQ ID NO: 15), human CCL2 Met64Nle core [CCL2-M64Nle-1P8]", "IC50": 12}, {"molecule": "CCL2 variant, N-terminal APQWAAAT, positions 1-2 absent (SEQ ID NO: 32), human CCL2 Met64Nle core [CCL2-M64Nle-2P1]", "IC50": 89.3}, {"molecule": "CCL2 variant, N-terminal FP(Nle)DGWAPVT (SEQ ID NO: 10), human CCL2 Met64Nle core [CCL2-M64Nle-2P6]", "IC50": 2.2}]}, {"target": "T1, CCR2", "experiment": "CCR2 inhibitory potency assay, calcium flux method, THP-1 cells stimulated with 100 nM CCL2", "format": "cell-based", "conditions": "Table 4; CCR2 inhibition; read-out: mean IC50", "experimental": "as §1, §2, §3", "units": {"IC50": "nM"}, "values": [{"molecule": "CCL2 variant, N-terminal FP(Nle)DGWGPGV (SEQ ID NO: 144), human CCL2 11-76 Met64Nle core (FP[Nle]DGWGPGV; also: followed by human CCL2 11-76 core with Met64Nle) [4P24-CCL2]", "IC50": 1.65}, {"molecule": "CCL2 variant, N-terminal FP(Nle)DGWGSRV (SEQ ID NO: 102), human CCL2 11-76 Met64Nle core (FP[Nle]DGWGSRV; also: followed by human CCL2 11-76 core with Met64Nle) [4P2-CCL2]", "IC50": 2.72}, {"molecule": "CCL2 variant, N-terminal FP(Nle)DGWHPLV (SEQ ID NO: 132), human CCL2 11-76 Met64Nle core (FP[Nle]DGWHPLV; also: followed by human CCL2 11-76 core with Met64Nle) [4P18-CCL2]", "IC50": 0.585}, {"molecule": "CCL2 variant, N-terminal FP(Nle)DGWQGGV (SEQ ID NO: 122), human CCL2 11-76 Met64Nle core (FP[Nle]DGWQGGV; also: followed by human CCL2 11-76 core with Met64Nle) [4P13-CCL2]", "IC50": 0.534}, {"molecule": "CCL2 variant, N-terminal FP(Nle)DGWRGET (SEQ ID NO: 110), human CCL2 11-76 Met64Nle core (FP[Nle]DGWRGET; also: followed by human CCL2 11-76 core with Met64Nle) [4P6-CCL2]", "IC50": 1.45}, {"molecule": "CCL2 variant, N-terminal FP(Nle)DGWRGGV (SEQ ID NO: 116), human CCL2 11-76 Met64Nle core (FP[Nle]DGWRGGV; also: followed by human CCL2 11-76 core with Met64Nle) [4P9-CCL2]", "IC50": 1.65}, {"molecule": "CCL2 variant, N-terminal FP(Nle)DGWRGLT (SEQ ID NO: 106), human CCL2 11-76 Met64Nle core (FP[Nle]DGWRGLT; also: followed by human CCL2 11-76 core with Met64Nle) [4P4-CCL2]", "IC50": 2.38}, {"molecule": "CCL2 variant, N-terminal FP(Nle)DGWRGLV (SEQ ID NO: 136), human CCL2 11-76 Met64Nle core (FP[Nle]DGWRGLV; also: followed by human CCL2 11-76 core with Met64Nle) [4P20-CCL2]", "IC50": 0.93}, {"molecule": "CCL2 variant, N-terminal FP(Nle)DGWRGQV (SEQ ID NO: 128), human CCL2 11-76 Met64Nle core (FP[Nle]DGWRGQV; also: fused to human CCL2 11-76 core with Met64Nle) [4P16-CCL2]", "IC50": 0.82}, {"molecule": "CCL2 variant, N-terminal FP(Nle)DGWRPLV (SEQ ID NO: 140), human CCL2 11-76 Met64Nle core (FP[Nle]DGWRPLV; also: fused to human CCL2 11-76 core with Met64Nle) [4P22-CCL2]", "IC50": 0.759}, {"molecule": "CCL2 variant, N-terminal FP(Nle)DGWRPRQ (SEQ ID NO: 108), human CCL2 11-76 Met64Nle core (FP[Nle]DGWRPRQ; also: fused to human CCL2 11-76 core with Met64Nle) [4P5-CCL2]", "IC50": 65.8}, {"molecule": "CCL2 variant, N-terminal FP(Nle)DGWRPRT (SEQ ID NO: 142), human CCL2 11-76 Met64Nle core (FP[Nle]DGWRPRT; also: fused to human CCL2 11-76 core with Met64Nle) [4P23-CCL2]", "IC50": 1.02}, {"molecule": "CCL2 variant, N-terminal FP(Nle)DGWVSRT (SEQ ID NO: 124), human CCL2 11-76 Met64Nle core (FP[Nle]DGWVSRT; also: fused to human CCL2 11-76 core with Met64Nle) [4P14-CCL2]", "IC50": 0.965}, {"molecule": "CCL2 variant, N-terminal FTNPTWAPLQ (SEQ ID NO: 83), human CCL2 11-76 Met64Nle core [3P8-CCL2]", "IC50": 0.892}, {"molecule": "CCL2 variant, N-terminal FTNPTWATHV (SEQ ID NO: 82), human CCL2 11-76 Met64Nle core [3P7-CCL2]", "IC50": 1.47}, {"molecule": "CCL2 variant, N-terminal FTNPTWDAFT (SEQ ID NO: 76), human CCL2 11-76 Met64Nle core [3P1-CCL2]", "IC50": 0.655}, {"molecule": "CCL2 variant, N-terminal FTNPTWDAGV (SEQ ID NO: 97), human CCL2 11-76 Met64Nle core [3P22-CCL2]", "IC50": 1}, {"molecule": "CCL2 variant, N-terminal FTNPTWDAQV (SEQ ID NO: 77), human CCL2 11-76 Met64Nle core [3P2-CCL2]", "IC50": 0.883}, {"molecule": "CCL2 variant, N-terminal FTNPTWDAVT (SEQ ID NO: 89), human CCL2 11-76 Met64Nle core [3P14-CCL2]", "IC50": 0.594}, {"molecule": "CCL2 variant, N-terminal FTNPTWDHFV (SEQ ID NO: 88), human CCL2 11-76 Met64Nle core [3P13-CCL2]", "IC50": 0.437}, {"molecule": "CCL2 variant, N-terminal FTNPTWDPFT (SEQ ID NO: 95), human CCL2 11-76 Met64Nle core [3P20-CCL2]", "IC50": 0.718}, {"molecule": "CCL2 variant, N-terminal FTNPTWDQFT (SEQ ID NO: 86), human CCL2 11-76 Met64Nle core [3P11-CCL2]", "IC50": 0.703}, {"molecule": "CCL2 variant, N-terminal FTNPTWDRFT (SEQ ID NO: 87), human CCL2 11-76 Met64Nle core (not fully specified (C-terminus); also: followed C-terminally by human CCL2 11-76 core with Met64Nle) [3P12-CCL2]", "IC50": 0.625}, {"molecule": "CCL2 variant, N-terminal FTNPTWDSFS (SEQ ID NO: 84), human CCL2 11-76 Met64Nle core (not fully specified (C-terminus); also: followed C-terminally by human CCL2 11-76 core with Met64Nle) [3P9-CCL2]", "IC50": 0.585}]}, {"target": "T1, CCR2", "experiment": "CCR2 inhibitory potency assay, calcium flux method, THP-1 cells stimulated with 100 nM CCL2", "format": "cell-based", "conditions": "compiled data from four experiments", "experimental": "as §1, §2, §3", "units": {"fold less potent than 1P2-CCL2": "fold"}, "values": [{"molecule": "CC(C)(C)N1CCN[C@@H](C(=O)N2CCN(C(=O)Nc3ccc(Cl)c(F)c3)CC2)C1", "note": "[AZD2423, reference compound]", "fold less potent than 1P2-CCL2": 3.53}, {"molecule": "CC(=O)N[C@@H]1C[C@H](NC(C)(C)C)CC[C@@H]1N1CC[C@H](Nc2ncnc3cc(C(C)(C)C)nn23)C1=O", "note": "[BMS-813160, reference compound]", "fold less potent than 1P2-CCL2": 5.76}, {"molecule": "Cc1cnc(C(=O)c2ncnc3[nH]ccc23)c(NS(=O)(=O)c2ccc(Cl)c(C(F)(F)F)c2)c1", "note": "[CCX-140, reference compound]", "fold less potent than 1P2-CCL2": 14.12}]}]}
